What was measured:
[1] = molecular target: ddFP-B3-inserted NCad (NCad-B3) (mouse) (UniProt P15116); assay: split reporter (BiFC, NanoBiT); dimerization-dependent fluorescent protein; HEK293T cells co-expressing both components (mCherry-NLS) co-cultured with cells expressing NCad without fluorescent protein (EBFP2-NLS); signal at R-R against B-R cell adhesion sites
[2] = molecular target: ddFP-B1-inserted NCad (NCad-B1) (mouse) (UniProt P15116); assay: as above
[3] = molecular target: ddFP-B3-inserted NCad (NCad-B3) (mouse) (UniProt P15116); assay: split reporter (BiFC, NanoBiT); dimerization-dependent fluorescent protein; time-lapse of HEK293T cells each expressing one component, from seeding for 120 min, then 10 mM EGTA for 120 min; washout of EGTA in a further experiment
[4] = molecular target: ddFP-B1-inserted NCad (NCad-B1) (mouse) (UniProt P15116); assay: as above
N-cadherin = N-cadherin (UniProt P15116); conditions: cited from earlier work

N-cadherin, sequence (P15116 160-724): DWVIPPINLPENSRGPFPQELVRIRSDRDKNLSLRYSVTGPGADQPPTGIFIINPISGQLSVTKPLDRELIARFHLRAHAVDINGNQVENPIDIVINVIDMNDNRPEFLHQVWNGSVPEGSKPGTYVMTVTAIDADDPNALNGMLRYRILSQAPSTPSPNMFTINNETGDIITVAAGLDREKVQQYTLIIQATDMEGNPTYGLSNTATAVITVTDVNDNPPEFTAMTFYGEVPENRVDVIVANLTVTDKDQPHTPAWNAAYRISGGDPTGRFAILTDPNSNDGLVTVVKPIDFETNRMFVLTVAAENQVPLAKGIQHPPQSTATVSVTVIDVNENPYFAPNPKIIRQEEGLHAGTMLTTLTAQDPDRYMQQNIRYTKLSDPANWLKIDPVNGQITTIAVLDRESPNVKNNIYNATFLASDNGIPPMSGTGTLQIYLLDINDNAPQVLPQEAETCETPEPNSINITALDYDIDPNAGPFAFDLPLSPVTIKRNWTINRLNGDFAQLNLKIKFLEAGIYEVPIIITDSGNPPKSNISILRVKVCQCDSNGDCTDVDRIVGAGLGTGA

contrast of signal between R-R and B-R cell adhesion sites [1]	contrast of signal between R-R and B-R cell adhesion sites [2]	time to 50% of the signal after addition of 10 mM EGTA [3]	time to 50% of the signal after addition of 10 mM EGTA [4]	Substance	Kd (N-cadherin)
7.72	5.31	50 min	50 min	ddGFP-A-inserted NCad (NCad-GA) (from UniProt P15116 26-311; P15116 312-906)	
				N-cadherin (from UniProt P15116)	25 µM

Source: PMC9546846
